According to patent publication US20060199228A1 (KING S COLLEGE LONDON, published 2006):
Values belong to the binder of their own block, whether it stands above or below them.

Target: T1, HLA-DR4 immunoaffinity-purified from Priess EBV-transformed B cells (DRB1*0401)
T1 construct: Detergent-solubilised native protein, purified with the anti-HLA-DR mAb L243; Priess cells also carry DRw53, which the L243 column would not separate; The elution used cells pulsed with preproinsulin; also called soluble HLA-DR4
Test: competition against 2.5 µM biotinylated invariant chain 98-117 for purified HLA-DR4, L243 capture, DELFIA
Procedure: A further selection step was applied based on the following novel initiative. […] HLA-DR4 molecules used in this assay were purified from resting, unmanipulated Priess cell pellets, using the immunoaffinity column approach described above in method 1.1. […] Plates were incubated for a further 1 hour at room temperature and washed 5 times in TBST. Europium-conjugated streptavidin (Perkin Elmer Ltd., Hounslow, UK) was added at 1 μg/ml in dissociation-enhanced time-resolved fluoroimmunoassays (DELFIA) assay buffer (Wallac Oy, Turku, Finland) and incubated for 45 minutes at room temperature. Wells were washed a further 5 times in TBST and 100 μl DELFIA enhancement solution added to each well. Fluorescent intensity was measured in a DELFIA fluorimeter.

Binder: EDLQVGQVELGGGPGAGSLQPLAL [preproinsulin peptide C3-C26]
- IC50: 3000 nM

Binder: GGGPGAGSLQPLALEGSLQK (Synthetic peptide; also called C13-32) [preproinsulin peptide C13-C32]
- IC50: 5000 nM

Binder: DLQVGQVELGGGPGAGSLQPLALE [preproinsulin peptide C4-C27]
- IC50: 3000 nM

More lines, now with the values ahead:

- IC50: 500 nM
B1: preproinsulin peptide C19-A3 (peptide)
peptide: GSLQPLALEGSLQKRGIV
notes: Synthetic peptide; also called PI C19-A3; Proinsulin C19-A3

- IC50: 400 nM
Binder: QPLALEGSLQKRGIVEQ (Synthetic peptide) [preproinsulin peptide C22-A5]
